Data published in patent US20130143793A1 (ZEALAND PHARMA A S, published 2013).
Like-named read-outs stand apart in the source and are kept apart here. Square brackets hold non-standard residues; d marks the D form. Ends that are not written are not given here.

T1: mouse CCK-B receptor (mouse, UniProt P56481 1-453)
T1 sequence (looked up): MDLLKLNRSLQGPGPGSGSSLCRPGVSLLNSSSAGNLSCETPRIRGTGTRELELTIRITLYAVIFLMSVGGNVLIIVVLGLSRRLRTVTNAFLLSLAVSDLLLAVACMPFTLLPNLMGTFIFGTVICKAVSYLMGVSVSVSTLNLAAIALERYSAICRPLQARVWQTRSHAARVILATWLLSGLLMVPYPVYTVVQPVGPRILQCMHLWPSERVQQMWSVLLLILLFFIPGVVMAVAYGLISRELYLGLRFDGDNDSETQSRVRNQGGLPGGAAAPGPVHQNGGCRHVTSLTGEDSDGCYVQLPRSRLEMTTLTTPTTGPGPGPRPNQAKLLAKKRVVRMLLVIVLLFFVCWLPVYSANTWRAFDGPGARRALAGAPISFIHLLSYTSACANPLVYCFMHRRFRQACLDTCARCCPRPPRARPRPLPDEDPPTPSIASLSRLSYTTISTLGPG

T2: human CCK-B receptor (human, UniProt P32239 1-447)
T2 sequence (looked up): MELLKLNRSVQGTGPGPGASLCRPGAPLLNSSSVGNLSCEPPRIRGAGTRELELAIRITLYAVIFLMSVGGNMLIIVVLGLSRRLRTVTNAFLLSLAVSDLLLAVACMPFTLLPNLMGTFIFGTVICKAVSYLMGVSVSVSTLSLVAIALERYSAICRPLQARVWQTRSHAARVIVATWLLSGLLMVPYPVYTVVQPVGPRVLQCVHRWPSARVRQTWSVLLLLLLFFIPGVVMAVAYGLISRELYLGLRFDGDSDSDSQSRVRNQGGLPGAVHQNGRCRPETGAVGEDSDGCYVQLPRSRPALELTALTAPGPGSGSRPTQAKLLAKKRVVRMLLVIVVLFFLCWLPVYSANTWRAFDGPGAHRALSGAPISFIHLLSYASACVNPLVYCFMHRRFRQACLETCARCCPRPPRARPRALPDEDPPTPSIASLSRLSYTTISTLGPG


Key:
Assay in all cases: cell-based or functional assay
[1] = target: T1, mouse CCK-B receptor
[2] = target: T1, mouse CCK-B receptor; remark: listed apart in the source
[3] = target: T2, human CCK-B receptor
[4] = target: T3, human GLP-1 receptor (human, UniProt P43220 24-463)
Target sequence in this assay (P43220 24-463): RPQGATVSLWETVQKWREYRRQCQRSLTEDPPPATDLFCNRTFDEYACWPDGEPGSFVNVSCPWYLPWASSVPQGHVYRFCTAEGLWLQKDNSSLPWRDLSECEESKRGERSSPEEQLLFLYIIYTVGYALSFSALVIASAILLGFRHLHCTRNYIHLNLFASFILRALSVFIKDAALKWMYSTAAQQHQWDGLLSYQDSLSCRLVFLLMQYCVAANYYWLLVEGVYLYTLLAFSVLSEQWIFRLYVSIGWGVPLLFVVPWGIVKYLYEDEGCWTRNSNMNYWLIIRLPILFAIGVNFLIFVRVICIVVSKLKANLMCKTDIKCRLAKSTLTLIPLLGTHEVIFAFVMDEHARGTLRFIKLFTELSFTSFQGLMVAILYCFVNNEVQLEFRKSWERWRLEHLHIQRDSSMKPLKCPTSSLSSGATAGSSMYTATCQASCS

[5] = target: T2, human CCK-B receptor; remark: listed apart in the source
[6] = target: T3, human GLP-1 receptor; remark: listed apart in the source
Target sequence in this assay (P43220 24-463): as above

[7] = target: T3, human GLP-1 receptor; remark: listed apart in the source
[8] = target: T2, human CCK-B receptor; remark: listed apart in the source

| Molecule | mCCK-B R EC50 (p-ERK) [1] [nM] | mCCK-B R EC50 (p-ERK) [2] [nM] | hCCK-B R EC50 (p-ERK) [3] [nM] | hGLP-1 R EC50 (cAMP) [4] [nM] | hCCK-B R EC50 (p-ERK) [5] [nM] | hGLP-1 R EC50 (cAMP) [6] [nM] | hGLP-1 R EC50 (cAMP) [7] [nM] | hCCK-B R EC50 (p-ERK) [8] [nM] |
| --- | --- | --- | --- | --- | --- | --- | --- | --- |
| h[Gln1,Leu15]Gastrin17 (peptide) | 18 | 18.2 | – | – | – | – | – | – |
| [Arg34]GLP-1(7-37)-Peg3-Peg3-[Leu4]Gastrin6 (peptide) | – | – | 24 | – | – | – | – | – |
| [Aib8,Arg34]GLP-1(7-37)-Peg3-Peg3-[Leu4]Gastrin6 (peptide) | – | – | 42 | 0.043 | – | – | – | – |
| [Arg26,34,Lys(Hexadecanoyl-isoGlu)36]GLP-1(7-37)-Peg3-Peg3-[Leu4]Gastrin6 (peptide) | – | – | 78 | 0.11 | – | – | – | – |
| GLP-1(7-36)-8Aoc-SKK-[Gln1,Leu15]Gastrin17 (peptide) | 83 | 82.5 | 52 | – | 51.9 | – | – | – |
| GLP-1(7-36)-K-[Gln1,Leu15]Gastrin17 (peptide) | 110 | 114 | 77 | 0.03 | 77.3 | 0.0842 | – | – |
| GLP-1(7-36)-Peg3-SKK-[Gln1,Leu15]Gastrin17 (peptide) | 51 | 51.1 | 8.8 | – | 8.76 | – | – | – |
| GLP-1(7-36)-[Gln1,Leu15]Gastrin17 (peptide) | 73 | 73.1 | 26 | 0.03 | 25.9 | 0.145 | – | – |
| GLP-1(7-36)-AAA-[Gln1,Leu15]Gastrin17 (peptide) | 54 | 54.1 | 19 | 0.034 | 18.8 | 0.114 | – | – |
| CCK-8 (from UniProt P06307 96-103) (peptide) | 160 | 163 | – | – | – | – | – | – |
| [Lys(Hexadecanoyl-isoGlu)26]GLP-1(7-37)-Peg3-Peg3-[Leu4]Gastrin6 (peptide) | – | – | 26 | – | – | – | – | – |
| [Lys(Hexadecanoyl-isoGlu)34]GLP-1(7-37)-Peg3-Peg3-[Leu4]Gastrin6 (peptide) | – | – | 18 | – | – | – | – | – |
| GLP-1(7-36)-SKK-[Gln1,Leu15]Gastrin17 (peptide) | 59 | 58.6 | 16 | 0.031 | 15.6 | 0.116 | – | – |
| GLP-1(7-36)-8Aoc-8Aoc-[Gln1,Leu15]Gastrin17 (peptide) | 71 | 71.4 | 13 | – | 12.8 | – | – | – |
| [Arg34,Lys(Hexadecanoyl-isoGlu)26]GLP-1(7-37)-Peg3-Peg3-[Leu4]Gastrin6 (peptide) | – | – | 29 | – | – | – | – | – |
| [Arg26,34,Gly8,Lys(Hexadecanoyl-isoGlu)36]GLP-1(7-37)-Peg3-Peg3-[Leu4]Gastrin6 (peptide) | – | – | 29 | 0.12 | – | – | – | – |
| GLP-1(7-36)-Peg3-Peg3-[Gln1,Leu15]Gastrin17 (peptide) | 58 | 58.3 | 8.2 | – | – | – | – | – |
| h[Leu15]Gastrin17 (from UniProt P01350 76-92) (peptide) | – | – | 2.4 | – | – | – | – | – |
| [Aib8,Arg34,Lys(Hexadecanoyl-isoGlu)26]GLP-1(7-37)-Peg3-Peg3-[Leu4]Gastrin6 (peptide) | – | – | 59 | 0.088 | – | – | – | – |
| GLP-1(7-36)-DBF-SKK-[Gln1,Leu15]Gastrin17 (peptide) | 87 | 86.9 | 26 | – | 25.7 | – | – | – |
| HGEGTFTSDLSKQMEKEAVRLFIEWLKN[Peg3][Peg3]YGWLDF-NH2 [[Lys16]Exendin-4(1-28)-Peg3-Peg3-[Leu4]Gastrin6] | – | – | – | – | – | – | 0.032 | 15 |
